Measurements published in patent publication US6100378A, “Enhancement of the pro-fertility action of a molecule involved in a sperm-egg binding” (BioPore, Inc., priority 1999, dated 2000).
Where “and” joins values, the source holds several entries; their conditions need not be identical. Equal values may be shown once. Bridge positions count the residues as written; N and C are the ends. Ends that are not written are not given here.

Assays:
[1] = system: frozen-thawed rooster sperm bound to an egg-membrane substrate; experiment: BioPore Sperm-Binding Assay: percentage of sperm binding to an egg-membrane substrate; format: cell-based; details: 10 minutes at 37° C. exposure, 2 million sperm/well
Description: All three peptides were incubated at 0, 20 and 80 ng peptide/million sperm prior to evaluation. Ration % bound calculated as: % bound with Peptide / % bound for Control; and
We used the BioPore® Sperm-Binding Assay (Amann et al., 1999) to compare. percentage of sperm binding to an egg-membrane substrate (similar to Barbato et al., 1998) after brief in vitro exposure to three concentrations of a prior art peptide (Hammerstedt et al., 1997), representing each of two lots of peptide SEQ ID NO: 4 (after disulfide linking the cystine residues) or three concentrations of SEQ ID NO: 1 (after disulfide linking the cystine residues). Briefly, cryopreserved rooster semen (Gill et al., 1996) from broiler males (Barbato et al., 1998) was thawed, deglycerolated (Gill et al., 1996), and adjusted to provide a concentrated suspension of sperm in an appropriate salts buffer. We used one containing: 0.600 g sodium glutamate, 0.210 g potassium glutamate, 0.100 g glucose, 0.070 g sorbitol, 0.035 g magnesium sulfate, 0.210 g potassium acetate, 0.050 g potassium citrate, 0.700 g di-potassiumphosphate, 0.160 g mono-potassium phosphate, 0.800 g di-sodium phosphate, 0.100 9 potassium hydroxide, 0.300 g N,N -bis[2-hydroxyethyl]-2-aminoethanesulfonic acid, 0.400 g N-[2-hydroxyethyl]piperazine-N'-[2-ethanesulfonic acid], and 0.400 g N-tris[hydroxymethyl]methyl-2-aminoethanesulfonic acid, dissolved in distilled water to make 100 ml (Tajima et al., 1989). Aliquots of this suspension were placed in tubes containing one of the three peptide sequences at 0, 20 or 80 ng per million sperm. After mixing and 10 minutes incubation at 37° C., the suspensions were further diluted and assayed using 2 million sperm/well in the microwell assay plates. Plates were incubated at 32° C. for 60 min, after which unbound sperm were decanted, the wells washed, and the DNA in sperm bound to the egg-membranesubstrate in the microwell plates quantified (Barbato et al., 1998). […] With SEQ ID NO: 1, however, binding for suspensions exposed to either 20 or 80 ng/million sperm was greater, namely 1.20 and 1.22 the control value.

[2] = system: White Leghorn hens inseminated with frozen-thawed rooster sperm; experiment: Fertility trial: artificial insemination of hens with frozen-thawed rooster sperm exposed to peptide; format: in vivo, chicken
From the text: Each bar based on >425 eggs.
To compare fertility achieved after exposure of rooster sperm to SEQ ID NO: 4 and SEQ ID NO: 1, we used cryopreserved semen as in Example 1. To facilitate detection of benefit from peptides, we used a limited number of sperm for each artificial insemination. Pooled, deglycerolated semen (1 billion sperm/ml; at 0-4C.), in salts buffer as described in Example 1, was dispensed into tubes containing SEQ ID NO: 4 or SEQ ID NO: 1 to make nine suspensions: 0.0 (control), 0.2, 0.5, 1.0 or 2.0 μM and mixed. Artificial insemination of White Leghorn hens (40/group) was within 1 hour, and used 50 μl (50 million sperm). Eggs were collected daily, stored ≤7 d at 14C., incubated, and candled on day 7 (eggs with viable embryo were classed as fertile). Data resulting from four inseminations at 4-day intervals are shown (FIG. 2). It was concluded that both 0.2 and 0.5 μM SEQ ID NO: 4 improved fertility as did 0.2, 0.5, 1.0 and 2.0 μM SEQ ID NO: 1. […] The increase in fertility (above the control value) with the best concentration of SEQ ID NO: 1 (15.4 units at 2.0 μM) was 2.0× that with SEQ ID NO: 4 (7.8 units at 0.5 μM). Clearly, brief in vitro exposure of sperm to SEQ ID NO: 1 rather than SEQ ID NO: 4 before artificial insemination gave a greater increase in percentage of fertilized eggs over a greater range in concentration.

[3] = 20 ng peptide/million sperm, SEQ ID NO: 4 as 2 preparations (lots)

| Molecule | binding relative to the value for the non-peptide control (ratio % bound with peptide / % bound for control) [1, 3] | increase in fertility (above the control value) with the best concentration ([2]; 2.0 μM peptide, percentage of fertilized eggs, 50 million sperm, four inseminations at 4-day intervals) | increase in fertility with best concentration relative to that with SEQ ID NO: 4 ([2]; SEQ ID NO: 1 at 2.0 μM vs SEQ ID NO: 4 at 0.5 μM) | fold range of concentrations of benefit to fertility ([2]; tested 0.2, 0.5, 1.0, 2.0 μM) | binding relative to the value for the non-peptide control (ratio % bound with peptide / % bound for control) ([1]; 80 ng peptide/million sperm) |
| --- | --- | --- | --- | --- | --- |
| CQSLQEYLAEQNQRQLESNKIPEVDLARVVAPFMSNIPLLLYPQDRPRSQPQPKANEDVC (disulfide 1-60) [SEQ ID NO: 4, reference compound] | 1.13 × and 1.17 × | – | – | – | – |
| Cys-Gln-Ser-Leu-Gln-Glu-Tyr-Leu-Ala-Glu-Gln-Asn-Gln-Arg-Gln-Leu-Glu-Ser-Asn-Lys-Ile-Pro-Glu-Val-Asp-Leu-Ala-Agr-Val-Val-Ala-Pro-Phe-Met-Ser-Asn-Ile-Pro-Leu-Leu-Leu-Tyr-Pro-Gln-Asp-Arg-Pro-Arg-Ser-Gln- … (peptide) CQSLQEYLAEQNQRQLESNKIPEVDLAAVVAPFMSNIPLLLYPQDRPRSQPQPKANEDVCVNHHHHHH | 1.20 × | 15.4 units | 2.0 × | ≥ 10 fold | 1.22 |
